# Data from patent US20110319869A1 (US Dept. of Health and Human Services, published 2011).
# B1: MUC-1 peptide P-92 (native), ATWGQDVTSV (peptide)
# peptide: ATWGQDVTSV
# notes: Synthetic 10-mer from the non-VNTR region of MUC-1
# Molecular target: T1, HLA-A2 molecule (human)
# T1 construct: also called HLA-A2 on T2 cells (174CEM-T2; T2A2 cells)
# Assay: T2 cell binding assay: flow cytometry of surface HLA-A2 with anti-HLA-A2 mAb after incubation with peptide (50 µg/ml)
# Description: (§1) In this assay, increased stability (accumulation) of HLA-A2 molecules on the surface of T2 cells as a consequence of peptide binding is measured by increased binding of antibody directed against HLA-A2 molecule. Briefly, 1×10⁶ cells in serum-free Iscove's modified Dulbecco's complete medium were incubated with peptides at a concentration of 50 μg/ml in 24-well culture plates at 37° C. in 5% CO₂. Flow cytometry for peptide binding was performed using T2 cells and single-color analysis. After cells were washed three times in DPBS, as described above, they were incubated for 1 h with a 1:100 dilution of HLA-A2—specific MAb (One Lambda, Inc.) per 10⁶ cells. UPC-10 (Cappel/Organon Teknika) was used as isotype control. The cells were then washed three times and incubated with 1:100 dilution of FITC-labeled anti-mouse IgG (BD Biosciences). Analysis was conducted with the FACScan, as described above. Cells were maintained on ice during all cell preparation and staining.
row,Molecule,T2 binding (relative fluorescence)
1,B1,510 relative fluorescence values
2,AMWGQDVTSV [MUC-1 peptide analogue M-93],723 relative fluorescence values
3,ALWGQDVTSL [MUC-1 peptide analogue L-93/L-101],736 relative fluorescence values
4,AIWGQDVTSL [MUC-1 peptide analogue I-93/L-101],280 relative fluorescence values
5,AIWGQDVTSV (also called I-93) [MUC-1 peptide analogue P-93I],823 relative fluorescence values
6,"ALWGQDVTSV (also called L-93; MUC-1 peptide) [MUC-1 agonist peptide P-93L, ALWGQDVTSV]",821 relative fluorescence values
7,AMWGQDVTSL [MUC-1 peptide analogue M-93/L-101],325 relative fluorescence values

# Molecular target: T1, HLA-A2 molecule
# Assay: T2 cell binding assay: flow cytometry of surface HLA-A2 with anti-HLA-A2 mAb; negative control
row,Molecule,T2 binding (relative fluorescence) (relative fluorescence values)
1,CEA CAP-7 (HLA-A3 binding peptide),200

# Molecular target: T1, HLA-A2 molecule
# Assay: T2 cell binding assay, flow cytometry with anti-HLA-A2 mAb
# Description: as §1
# The primary amino acid sequence of human MUC-1 was analyzed for consensus motifs for novel HLA-A2 binding peptides.
row,Molecule,binding result
1,"YRPGENLNL [NCA peptide, YRPGENLNL]",no binding (tested: 50 µg/ml peptide)

# Molecular target: T1, HLA-A2 molecule
# Assay: T2 cell binding assay: flow cytometry of surface HLA-A2 with anti-HLA-A2 mAb after incubation with peptide (50 µg/ml)
# Remark: another data set of the same source
# Description: as §1, with “staining. […]” for “staining.”
row,Molecule,T2 binding (relative fluorescence)
1,"VLVALAIVYL [MUC-1 peptide P-1169, VLVALAIVYL]",369
2,"REGTINVHDV [MUC-1 peptide P-1108, REGTINVHDV]",482
3,"TISDVSVSDV [MUC-1 peptide P-1135, TISDVSVSDV]",422
4,"WGQDVTSVPV [MUC-1 peptide P-94, WGQDVTSVPV]",591
5,"LQRDISEMFL [MUC-1 peptide P-1069, LQRDISEMFL]",433
6,"LAFREGTINV [MUC-1 peptide P-1105, LAFREGTINV]",461
7,"ALLVLVCVLV [MUC-1 peptide P-1162, ALLVLVCVLV]",431
8,"TLASHSTKTD [MUC-1 peptide P-1104, TLASHSTKTD]",442
9,"GTQSPFFLLL [MUC-1 peptide P-4, GTQSPFFLLL]",467
10,B1,740
